Data as given in article doi:10.1101/2023.02.01.526621 (bioRxiv, 2023).

Molecular target: T1, GST-CESA3CD (catalytic domain of cellulose synthase CESA3 fused to GST) (Arabidopsis thaliana, UniProt Q941L0 305-843)
T1 sequence (looked up): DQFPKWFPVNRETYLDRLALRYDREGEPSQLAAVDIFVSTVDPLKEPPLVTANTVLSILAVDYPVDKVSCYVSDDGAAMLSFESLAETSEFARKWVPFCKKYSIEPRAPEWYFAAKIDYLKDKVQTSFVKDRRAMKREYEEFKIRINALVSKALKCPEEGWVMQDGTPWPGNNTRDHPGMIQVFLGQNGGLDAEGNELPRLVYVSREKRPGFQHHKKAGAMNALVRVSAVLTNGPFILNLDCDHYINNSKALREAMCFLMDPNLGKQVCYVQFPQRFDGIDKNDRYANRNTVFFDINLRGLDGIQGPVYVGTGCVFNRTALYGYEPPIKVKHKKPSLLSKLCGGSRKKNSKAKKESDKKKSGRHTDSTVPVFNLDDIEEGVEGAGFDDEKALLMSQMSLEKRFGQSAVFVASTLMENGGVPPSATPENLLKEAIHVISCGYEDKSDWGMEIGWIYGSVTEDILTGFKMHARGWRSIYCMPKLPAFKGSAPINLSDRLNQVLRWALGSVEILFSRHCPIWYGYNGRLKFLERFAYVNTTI
Assay: pull-down

binding result: binds
B1: His-tagged full-length CALCIUM-DEPENDENT PROTEIN KINASE32 (His-CPK32) (enzyme, Arabidopsis thaliana, UniProt Q6NLQ6 1-538, looked up)
chain: MGNCCGTAGSLAQNDNKPKKGRKKQNPFSIDYGLHHGGGDGGGRPLKLIVLNDPTGREIESKYTLGRELGRGEFGVTYLCTDKETDDVFACKSILKKKLRTAVDIEDVRREVEIMRHMPEHPNVVTLKETYEDEHAVHLVMELCEGGELFDRIVARGHYTERAAAAVTKTIMEVVQVCHKHGVMHRDLKPENFLFGNKKETAPLKAIDFGLSVFFKPGERFNEIVGSPYYMAPEVLKRNYGPEVDIWSAGVILYILLCGVPPFWAETEQGVAQAIIRSVLDFRRDPWPKVSENAKDLIRKMLDPDQKRRLTAQQVLDHPWLQNAKTAPNVSLGETVRARLKQFTVMNKLKKRALRVIAEHLSDEEASGIREGFQIMDTSQRGKINIDELKIGLQKLGHAIPQDDLQILMDAGDIDRDGYLDCDEFIAISVHLRKMGNDEHLKKAFAFFDQNNNGYIEIEELREALSDELGTSEEVVDAIIRDVDTDKDGRISYEEFVTMMKTGTDWRKASRQYSRERFNSISLKLMQDASLQVNGDTR
